# Measured values reported in the RNAGym collection of RNA variant scans (doi:10.1073/pnas.2313332121).
# B1: TPR t1 (parent)
# chain: GACCAAUCUGCCCUCAGAGCUCGAGAACAUCUUCGGAUGCAGAGGAGGCAGGCUUCGGUGGCGCGAUAGCGCCAACGUCCUCAACCUCCAAUGCAUCCCACCACAUGAUGAUGCCUGAAGAGCCUUGGUUUUUUG
# Variants of: B1
# Assay: polymerase ribozyme fitness, log enrichment relative to wild type (log ratio); higher = more active; in vitro selection for triplet polymerase activity
# In short: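 A single round of triplicate in vitro selection, including frozen incubation at −7 °C, was applied to PCR-built, transcribed mutant libraries of each subunit of a heterodimeric triplet polymerase ribozyme. Illumina sequencing of input and output libraries retained genotypes with ≥10 input reads and ≥1 read per output. Fitness is the base-2 logarithm of genotype enrichment divided by wild-type enrichment, from inverse-variance-weighted replicate averages.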
row,Variant,polymerase ribozyme fitness (log ratio)
1,A41U C56U G110A,-2.95
2,U106C,-0.282
3,G52U G58C C79U,-0.312
4,G93A C115A U131A,-0.388
5,U9A G19C C40G A43U G60U,-3.06
6,G48U G61C U78G C98U,-5.49
7,G44A C56U A84C G120C,-0.295
8,C34G C123G,-4.46
9,A66C A75G,-1.09
10,C3G A6U,-4.02
11,G61A A91C A95U G110U C115A U125C U130C,-3.6
12,G10U C70U U78C C82G,-2.45
13,A50U G69A C123G U131G,-4.01
14,A18U G69U C115G,-0.333
15,C12G G110A,-0.401
16,A5U C22A G60U,-6.59
17,U32G G48U C72G C102U G120C,-7.94
18,A66U C85U,-2.22
19,G52U C70G C72U,-3.48
20,C53A A111C,0.297
21,C13U G61C C101A,-2.82
22,C13U G93U,-0.472
23,G47U C80A,-5.8
24,C22A A27G G60C A83G,-6.08

row,Variant,polymerase ribozyme fitness (log ratio)
1,C70A C73U,-1.81
2,A5C C13A C70U U87A,-3.43
3,C13G A26G,-3.54
4,G44A U55A C70U C85G G113A,-4.29
5,C80A G113A,-3.03
6,G42U C73G,-2.39
7,C20G C115U A121C,-6.48
8,C8U G77A A84C A91C C98U,-2.47
9,A26U C86A G110A,-5.7
10,U112A A119C,-1.25
11,U14A A46C U81C C82U,-3.9
12,C15G U132A,-2.31
13,C40U A46G C64U A84C,-1.65
14,G17A G69U,-1.14
15,C70G A100U C115A G120U,-2.99
16,C8G A41C,-1.28
17,C11U U33G A121C,-4.56
18,G51A C89G,-4.83
19,C28G G120C,-1.89
20,C34G,-6.09
21,C34U,-4.05
22,C8U C62G U106G U112A,-2.63
23,C3A C123G,0.176
24,A37U G45U C56U C70G C102G G113A U125A,-7.38

row,Variant,polymerase ribozyme fitness (log ratio)
1,G69C A84C G128C,-4.09
2,C72U A84U C85U C104U,-0.48
3,G35A G61U,-3.61
4,G36A C64U,-0.622
5,G110C U132A,-3.46
6,C8U C53A,0.141
7,C12U C20U A46U U54C C56A U87G A91U,-3.03
8,C40A G61A A105G,-4.93
9,G69A U112C,-0.685
10,U67G C88U A111G U116A,-7.24
11,U54C G61A U81A U96A,-1.36
12,C28G C49G G52A G120A,-4.24
13,G65A C72U,-6.47
14,C70U G71C,-1.67
15,U33G C72G C86A A91C,-7.55
16,C8G C15U G48C G71A C124G,0.113
17,G48U G110U U125A,-2.52
18,C40G C56A G57U C70A C72U G77A,-4.22
19,A5G G36U G48A G61C G122U C123U,-1.93
20,G42C A43U C86U U96C,-2.55
21,A5G C13G G39A G51A U112C,-2.65
22,G17C G61U C114A,-5.45
23,G17A C89G,-3.97
24,G17A C89U,-3.72

row,Variant,polymerase ribozyme fitness (log ratio)
1,C3U C8U A105G,-2.67
2,C89U A90C,-0.815
3,C88U A91U C115G,-3.9
4,C13A U55C G69C G110U,-4.5
5,C11U G60A U106C G128C,-3.82
6,C8G U87A U96G G110U G122C U129C,-3.4
7,G44A G51A C80U C86A C124G,-0.462
8,G36U G71A G120U,-1.04
9,A43U A90C G110A A111G U132A,-0.915
10,C4U C72G,-0.855
11,A6U C8G,0.868
12,C31U G63U,-3.29
13,G19U C70U C94A C114U,-2.13
14,G45U C53A A90G C97U,-1.75
15,G52A C89G U129G,-2.09
16,C98U C114U,-3.88
17,G17U A26G G71A C94A U112C C115A,-2.54
18,A103U G127U U129G,-3.98
19,C4G A6U A27U A111U,-4.8
20,A41C U78C C86A U106A,-1.09
21,G69U G71U G120U U126A,-0.887
22,C40A G45A C56U G110C,-6.54
23,G36C A66C U125G,-2.72
24,G58A C70U C79G A100C,-6.76

row,Variant,polymerase ribozyme fitness (log ratio)
1,G19C C22U A46C G61U C114U,-4.53
2,C85G U112A C115U,-2.5
3,A24G G120A,-0.603
4,C12U C40G C72G,-1.36
5,C13U C15U,-2.01
6,U9G A103U,-4.16
7,G57A G61A,-0.154
8,C62A C85U A121G,0.356
9,G52C G61A C72U,-0.0205
10,G61C C80U G120U,-7.22
11,C79A C88A,-1.22
12,C8U A46G U54C C56A,-0.306
13,C8A G71U,-0.261
14,C11G C72U,0.401
15,U9G C70A C85U A90G C102A,-4.92
16,A2U C11U C97G G110C C114U G120C,-6.26
17,U30C C49U G63C G77A,-6.71
18,G17U G69A C114G,-5.6
19,G17C A43G C101A C104A U106A U112G U126C,-6.47
20,U9G G47A,-1.81
21,U9C C40A U130A,-0.631
22,C40U C49A C73U C98G,-6.1
23,C49A G61A,0.617
24,G10C C56U,-0.594

row,Variant,polymerase ribozyme fitness (log ratio)
1,A74U U87G U106G A121U,-0.122
2,A105C C115U,-4.02
3,A43U C73A C104A G113U,-5.13
4,C12U G61A C73A C88A,-1.6
5,G48C A103G,-5.44
6,C8U C53A C99U C101G,-3.52
7,A6C U9C A46C G61A C62U C82U,-3.08
8,G48C G60U A74U C115U,-2.52
9,G61C A84G U109G,-6.69
10,A18U A50U,-4.84
11,C12U C40U G57A G63U C88G A90G,-5.54
12,C86A C104A G120C U130A,-1.56
13,G42C G44C,-0.912
14,C3A U9G C40U G57U A105G,-4.58
15,C72G U78C C79A G128C,-4.09
16,C56U C124U,1.6
17,G77C G110A A118C,-1.65
18,C73A C115U,-1.36
19,C82A C115G U130G,-1.11
20,U7A G48C,-0.566
21,C4A A29G U30C A74C A121U,-3.71
22,U54G U55G C73U C102G G110U G120C,-6.74
23,A43U A50C C73U U78C C94G,-4.28
24,U55A C79A U125G U133G,-4.8

row,Variant,polymerase ribozyme fitness (log ratio)
1,C12U A29G,-1.25
2,U106A U109C,-3.27
3,G19C G60A G93A,-2.11
4,A2G G63C A74C U87C A100U,-4.51
5,G52C C56G G71U C124U,-3.19
6,U7A C12A A83C,-0.0554
7,U7G G71U,0.698
8,C104U A118G,0.462
9,A6U G36U G71A G122U C124A,-1.43
10,C62A U112C,0.245
11,C15U C62A,-2.1
12,U21A C28U A37G G61U,-4.5
13,C20U U81A,-1.98
14,G47A U78C G113U,-4.27
15,A24G U55G,-1.71
16,G39U C56U,0.0586
17,C12A A43G C62U C124G G127U,-0.505
18,C13A C28G A46G G110C U125C,-0.574
19,C49G C64G G120U C124A G135U,-7.53
20,G19U A46U G60A,-3.83
21,C82A U116C C123A,-2.84
22,A66C C70U G113A,-2.81
23,A5C G69A,-3.11
